Source: article PMC12866951 (Cell, 2026)

T1: S.c. Rad27 (Fen1) flap endonuclease with a 6xHis tag at the C-terminus (S. cerevisiae, UniProt P26793 1-382)
T1 sequence (looked up): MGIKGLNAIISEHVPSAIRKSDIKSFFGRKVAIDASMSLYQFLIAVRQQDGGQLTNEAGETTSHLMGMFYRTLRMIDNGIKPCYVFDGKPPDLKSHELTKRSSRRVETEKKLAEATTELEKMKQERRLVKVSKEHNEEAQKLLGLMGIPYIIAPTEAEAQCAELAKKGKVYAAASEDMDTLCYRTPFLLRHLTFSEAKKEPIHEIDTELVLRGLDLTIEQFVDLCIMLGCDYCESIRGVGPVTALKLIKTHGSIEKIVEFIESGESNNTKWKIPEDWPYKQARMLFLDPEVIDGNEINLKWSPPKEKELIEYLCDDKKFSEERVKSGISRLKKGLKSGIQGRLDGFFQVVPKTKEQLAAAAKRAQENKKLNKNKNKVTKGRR


What was measured:
[1] = biological target: T1, S.c. Rad27 (Fen1) flap endonuclease …; experiment: mass photometry
[2] = biological target: T1, S.c. Rad27 (Fen1) flap endonuclease …; experiment: single-molecule colocalisation on DNA

Row | binding result [1] | binding result [2] | Binder
1 | binds | – | PCNA (as used in mass photometry; tag and label not stated) (natural protein, S. cerevisiae, UniProt P15873 1-258, looked up) MLEAKFEEASLFKRIIDGFKDCVQLVNFQCKEDGIIAQAVDDSRVLLVSLEIGVEAFQEYRCDHPVTLGMDLTSLSKILRCGNNTDTLTLIADNTPDSIILLFEDTKKDRIAEYSLKLMDIDADFLKIEELQYDSTLSLPSSEFSKIVRDLSQLSDSINIMITKETIKFVADGDIGSGSVIIKPFVDMEHPETSIKLEMDQPVDLTFGAKYLLDIIKGSSLSDRVGIRLSSEAPALFQFDLKSGFLQFFLAPKFNDEE
2 | – | binds | LD655-PCNA (S. cerevisiae 3X FLAG-S6-tagged PCNA labeled with LD655) (natural protein, UniProt P15873 1-258, looked up, LD655 (from LD655-CoA, by SFP synthase) on the single serine residue of the S6 tag) MLEAKFEEASLFKRIIDGFKDCVQLVNFQCKEDGIIAQAVDDSRVLLVSLEIGVEAFQEYRCDHPVTLGMDLTSLSKILRCGNNTDTLTLIADNTPDSIILLFEDTKKDRIAEYSLKLMDIDADFLKIEELQYDSTLSLPSSEFSKIVRDLSQLSDSINIMITKETIKFVADGDIGSGSVIIKPFVDMEHPETSIKLEMDQPVDLTFGAKYLLDIIKGSSLSDRVGIRLSSEAPALFQFDLKSGFLQFFLAPKFNDEE
